This is an account of results in paper PMC12800249 (Scientific Reports, 2025).

Assay [1] has as its target delta opioid receptor (DOR) (Rattus norvegicus, UniProt P33533). In words: Intracellular cAMP assay. It is filed as cell-based. Particulars: FRSK cells; 10 μM forskolin, 1–1000 nM peptide, 30 min; cAMP-Glo.
The test system of another assay is MOR. Particulars: literature statement; cited from earlier work.

Chain of delta opioid receptor (DOR) (P33533 whole entry): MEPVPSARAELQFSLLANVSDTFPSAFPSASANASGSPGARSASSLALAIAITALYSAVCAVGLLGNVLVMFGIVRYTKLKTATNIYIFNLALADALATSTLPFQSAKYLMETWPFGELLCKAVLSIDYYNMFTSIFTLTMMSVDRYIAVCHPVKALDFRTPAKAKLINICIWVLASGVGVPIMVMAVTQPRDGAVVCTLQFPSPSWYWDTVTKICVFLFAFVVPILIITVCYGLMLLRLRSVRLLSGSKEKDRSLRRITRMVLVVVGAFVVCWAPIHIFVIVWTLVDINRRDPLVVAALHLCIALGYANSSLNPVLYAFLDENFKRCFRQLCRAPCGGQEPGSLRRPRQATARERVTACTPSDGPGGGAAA

In the case of β-endorphin, the “effect on forskolin-induced intracellular cAMP” value in assay [1] was “attenuated this forskolin-induced increase in cAMP concentration in a dose-dependent manner”. Also, the “receptor preference (MOR)” value in the assay on MOR is reported as “primary ligand for MOR”.
